In PMC7665024, “Anti-apoptotic BCL-2 regulation by changes in dynamics of its long unstructured loop” (Communications Biology, 2020):
Entries after “also recorded” stand apart in the source; their conditions may differ.

What was measured:
[1] = tested on: BAX; assay: FRAP-GUV pore-forming activity of BAX, 10-kDa F-dextran; type: biochemical, mouse; design: unit not given here
Protocol: (§1) Briefly, GUVs were incubated with the proteins of interest over a period of time (Fig. 2c), followed by photobleaching within individual GUVs. A series of fluorescent images were collected over time after the photobleaching and then analyzed to yield the diffusion coefficients of Fluor molecules (including FITC-labeled 70-kDa, and Alexa-647-labeled 10-kDa probes) using the theoretical approach detailed in the “Methods” section. As Fluor molecules are homogeneously dispersed in the solution (outside and inside of GUVs) before the incubation with BAX and activators, it is reasonable to expect that the larger the induced pore area on the surface of a GUV, the greater the diffusion coefficient. Thus, the diffusion coefficient is directly related to the pore-forming activity of activated BAX. As the pore-forming activity is proportional to the concentration of BAX[18], we fixed the total amount of added BAX in all of the measurements below (see the “Methods” section).
(§2) Full-length BAX and variants were prepared as previously described[18],[22],[35]. Mouse BAX was cloned into pTYB1 vector (New England Biolabs, Inc.), resulting pTYB1-BAX construct. The pTYB1-BAX construct encoding a fusion protein of BAX with chitin-binding peptide was separated by a self-cleavable intein tag to obtain a full-length BAX. Wild-type BAX has two native cysteine residues at 62 and 126. Cysteine-free construct (C62S/C126S) was used to prepare single-cysteine BAX variants for conjugating fluorescence probes (e.g., BAX136C in Fig. 1d). Point mutations of recombinant BAX were generated using a QuikChange mutagenesis kit. Proteins were expressed in E. coli (ER2566) strain (New England Biolabs, Inc.) and purified without detergent. Bacterial cultures were grown at 37 °C in LB medium containing 0.1 g/L ampicillin to reach an OD600 of 1.0. BAX expression was induced by addition of 0.3 mM IPTG at 30 °C for 6−8 h. The cells were harvested by centrifugation and resuspended in ice-cold lysis buffer (20 mM Tris–HCl, pH 7.0, 500 mM NaCl and 1 mM PMSF). The resuspended pellet was sonicated on ice for 30 min, followed by centrifugation at 12,800 × g for 50 min. […] The resins were incubated in a pre-equilibrated buffer (20 mM sodium phosphate, pH 8.0, 100 mM NaCl, 60 mM dithiothreitol (DTT)) for 48 h. Proteins were eluted from column and further purified by a SEC using a HiLoad 16/60 Superdex 75 column (GE Healthcare) pre-equilibrated in PB buffer (20 mM sodium phosphate, pH 7.4, 100 mM NaCl). Purified proteins were confirmed by SDS–PAGE with Coomassie blue staining. Protein concentration was determined using absorption spectroscopy at 280 nm.
(§3) All lipids used were purchased from Avanti Polar Lipids. […] Texas Red 1,2-dihexadecanoyl-sn-glycero-3-phosphoethanolamine (TR-DPPE) (Invitrogen) of 0.05% was added to the lipid mixture for virtualization of GUV[18],[26],[27]. GUVs were prepared with the gel-assisted swelling on a polyvinyl alcohol (PVA) gel[39]. A 5% (w/w) solution of PVA (MW 145,000) was prepared by stirring PVA in ddH2O while heating at 90 °C. PVA solution was spread on a microscope coverslip (18 × 18 mm, Matsunami, Japan) and then dried at 50 °C. Lipid mixture (1 mg/mL) dissolved in chloroform were spread on the dry PVA film and placed under vacuum for 30 min to evaporate the solvent. Lipids were rehydrated for 1 h in PB buffer. The resulting GUVs were transferred to an Eppendorf tube using blunt tips.
(§4) FRAP measurements were performed as described previously. […] All reactions were at room temperature and the final volume was 200 μL.

[2] = tested on: BAX; assay: FRAP-GUV pore-forming activity of BAX, 70-kDa F-dextran;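 for FRAP pore-forming activity, average: unitless ratio D/D0 relative to diffusion coefficient after Triton X-100 disruption of GUVs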;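 for FRAP pore-forming activity: unitless ratio D/D0 relative to diffusion coefficient after Triton X-100 disruption of GUVs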; type: biochemical, mouse; design: FRAP pore-forming activity / FRAP pore-forming activity, average / p (FRAP-70k-p), Average: unit not given here; conditions: for pore-forming activity / effect on BAX-induced membrane pores on GUV (in words): 10- and 70-kDa F-dextran, BAX 1 µM, BimBH3 2 µM, BCL-2 1 µM, ABT-199 30 µM, room temperature, Fig. 2c; for FRAP pore-forming activity, average / FRAP pore-forming activity: 70 kDa F-dextran; for FRAP pore-forming activity, average: mean of trials
Protocol: as §1, §2, §3, §4

[3] = 10 kDa F-dextran, mean of trials

In the case of “BAX: full-length mouse BAX; in FRET the single-cysteine variant BAX136C labeled with AL488 [reference compound]”, the “FRAP pore-forming activity, average” value [1, 3] is reported as 0.009408, the FRAP pore-forming activity ([1]; 10 kDa F-dextran, trial1) is reported as 0.008947 and the FRAP pore-forming activity ([1]; 10 kDa F-dextran, trial2) is reported as 0.02404. For the same molecule, the FRAP pore-forming activity ([1]; 10 kDa F-dextran, trial3) was 0.006842, the FRAP pore-forming activity ([1]; 10 kDa F-dextran, trial4) was 0.00807 and the FRAP pore-forming activity ([1]; 10 kDa F-dextran, trial5) was 0.01263. For the same molecule, the FRAP pore-forming activity ([1]; 10 kDa F-dextran, trial6) was 0.01719, the FRAP pore-forming activity ([1]; 10 kDa F-dextran, trial7) was 0.004737 and the FRAP pore-forming activity ([1]; 10 kDa F-dextran, trial8) was 0.002982. It also gave an FRAP pore-forming activity ([1]; 10 kDa F-dextran, trial9) of 0.002807, an FRAP pore-forming activity ([1]; 10 kDa F-dextran, trial10) of 0.02035 and an FRAP pore-forming activity ([1]; 10 kDa F-dextran, trial11) of 0.007719. For the same molecule, the FRAP pore-forming activity ([1]; 10 kDa F-dextran, trial12) was 0.003684, the FRAP pore-forming activity ([1]; 10 kDa F-dextran, trial13) was 0.01684 and the FRAP pore-forming activity ([1]; 10 kDa F-dextran, trial14) was 0.0007018. For the same molecule, the FRAP pore-forming activity ([1]; 10 kDa F-dextran, trial15) was 0.003509, the FRAP pore-forming activity ([1]; 10 kDa F-dextran, trial16) was 0.009474 and the “FRAP pore-forming activity, average” value ([1]; 10 kDa, Average of replicates (Count: BAX 16; BAX + BimBH3 19; BAX + BimBH3 + EEE 22; + EEE-PB 4; + EEE+ABT-199 5)) was 0.009408. For the same molecule, the “pore-forming activity / effect on BAX-induced membrane pores on GUV (in words)” value [2] was “neither BAX nor EEE, in the absence of pro-apoptotic BimBH3, is able to induce large membrane pores on GUV”, the “FRAP pore-forming activity, average” value [2] was 0.004165 and the FRAP pore-forming activity ([2]; trial1) was 0.0008251. It also gave an FRAP pore-forming activity ([2]; trial2) of 0.006931, an FRAP pore-forming activity ([2]; trial3) of 0.002475 and an FRAP pore-forming activity ([2]; trial4) of 0.000495. The FRAP pore-forming activity ([2]; trial5) was 0.00132, the FRAP pore-forming activity ([2]; trial6) was 0.001155 and the FRAP pore-forming activity ([2]; trial7) was 0.003135. For the same molecule, the FRAP pore-forming activity ([2]; trial8) was 0.001155, the FRAP pore-forming activity ([2]; trial9) was 0.000495 and the FRAP pore-forming activity ([2]; trial10) was 0.0008251. It also gave an FRAP pore-forming activity ([2]; trial11) of 0.00264, an FRAP pore-forming activity ([2]; trial12) of 0.00231 and an FRAP pore-forming activity ([2]; trial13) of 0.002145. For the same molecule, the FRAP pore-forming activity ([2]; trial14) was 0.005776, the FRAP pore-forming activity ([2]; trial15) was 0.000165 and the FRAP pore-forming activity ([2]; trial16) was 0.000495. For the same molecule, the FRAP pore-forming activity ([2]; trial17) was 0.01485, the FRAP pore-forming activity ([2]; trial18) was 0.0132 and the FRAP pore-forming activity ([2]; trial19) was 0.01155. For the same molecule, the FRAP pore-forming activity ([2]; trial20) was 0.002805, the FRAP pore-forming activity ([2]; trial21) was 0.01271 and the “p (FRAP-70k-p), Average” value ([2]; 70 kDa, Average of replicates (Count: BAX 21; BAX + BimBH3 16; BAX + BimBH3 + EEE 19; + EEE-PB 8; + EEE+ABT-199 5)) was 0.004165.

B1: EEE (protein)
chain: MAHAGRTGYDNREIVMKYIHYKLSQRGYEWDAGDVGAAPPGAAPAPGIFSSQPGHTPHPAASRDPVAREEPLQTPAAPGAAAGPALEPVPPVVHLTLRQAGDDFSRRYRRDFAEMSSQLHLTPFTARGRFATVVEELFRDGVNWGRIVAFFEFGGVMCVESVNREMSPLVDNIALWMTEYLNRHLHTWIQDNGGWDAFVELYGPSMRPLFDFSWLSL
modifications: Pacific Blue (maleimide) on the native cysteine 158; left off: His6, C-terminal, state not stated
B1 was tested, and the “FRAP pore-forming activity, average” value [1, 3] was 0.001715, the FRAP pore-forming activity ([1]; 10 kDa F-dextran, trial1) was 0.003333 and the FRAP pore-forming activity ([1]; 10 kDa F-dextran, trial2) was 0.0005263. It also gave an FRAP pore-forming activity ([1]; 10 kDa F-dextran, trial3) of 0.001579, an FRAP pore-forming activity ([1]; 10 kDa F-dextran, trial4) of 0.002807 and an FRAP pore-forming activity ([1]; 10 kDa F-dextran, trial5) of 0.002982. For the same molecule, the FRAP pore-forming activity ([1]; 10 kDa F-dextran, trial6) was 0.001754, the FRAP pore-forming activity ([1]; 10 kDa F-dextran, trial7) was 0.0005263 and the FRAP pore-forming activity ([1]; 10 kDa F-dextran, trial8) was 0.002807. The FRAP pore-forming activity ([1]; 10 kDa F-dextran, trial9) was 0.0005263, the FRAP pore-forming activity ([1]; 10 kDa F-dextran, trial10) was 0.0005263 and the FRAP pore-forming activity ([1]; 10 kDa F-dextran, trial11) was 0.0005263. It also gave an FRAP pore-forming activity ([1]; 10 kDa F-dextran, trial12) of 0.001053, an FRAP pore-forming activity ([1]; 10 kDa F-dextran, trial13) of 0.0005263 and an FRAP pore-forming activity ([1]; 10 kDa F-dextran, trial14) of 0.002632. For the same molecule, the FRAP pore-forming activity ([1]; 10 kDa F-dextran, trial15) was 0.001053, the FRAP pore-forming activity ([1]; 10 kDa F-dextran, trial16) was 0.002632 and the FRAP pore-forming activity ([1]; 10 kDa F-dextran, trial17) was 0.001404. The FRAP pore-forming activity ([1]; 10 kDa F-dextran, trial18) was 0.003684, the “pore-forming activity / effect on BAX-induced membrane pores on GUV (in words)” value [2] was “neither BAX nor EEE, in the absence of pro-apoptotic BimBH3, is able to induce large membrane pores on GUV; also recorded: the pore-forming ability of BAX is clearly inhibited by the presence of EEE” and the “FRAP pore-forming activity, average” value [2] was 0.0009376. It also gave an FRAP pore-forming activity ([2]; trial1) of 0.000495, an FRAP pore-forming activity ([2]; trial2) of 0.0006601 and an FRAP pore-forming activity ([2]; trial3) of 0.000495. It also gave an FRAP pore-forming activity ([2]; trial4) of 0.0009901, an FRAP pore-forming activity ([2]; trial5) of 0.0008251 and an FRAP pore-forming activity ([2]; trial6) of 0.000495. The FRAP pore-forming activity ([2]; trial7) was 0.0008251, the FRAP pore-forming activity ([2]; trial8) was 0.000495 and the FRAP pore-forming activity ([2]; trial9) was 0.00132. For the same molecule, the FRAP pore-forming activity ([2]; trial10) was 0.0008251, the FRAP pore-forming activity ([2]; trial11) was 0.0008251 and the FRAP pore-forming activity ([2]; trial12) was 0.0008251. For the same molecule, the FRAP pore-forming activity ([2]; trial13) was 0.001155, the FRAP pore-forming activity ([2]; trial14) was 0.0009901 and the FRAP pore-forming activity ([2]; trial15) was 0.002475. It also gave an FRAP pore-forming activity ([2]; trial16) of 0.000495, an FRAP pore-forming activity ([2]; trial17) of 0.0006601 and an FRAP pore-forming activity ([2]; trial18) of 0.000495. The FRAP pore-forming activity ([2]; trial19) was 0.002475, the FRAP pore-forming activity ([2]; trial20) was 0.0008251 and the FRAP pore-forming activity ([2]; trial21) was 0.0006601. For the same molecule, the FRAP pore-forming activity ([2]; trial22) was 0.00132.
